From patent publication US20250257368A1 (FLAGSHIP PIONEERING INNOVATIONS V, published 2025)

Target: the molecule itself
Assay: self-assembly into virus-like particles, negative staining electron microscopy

B1: Ring2 ORF1 protein expressed as a full-length protein in insect cells (other)
chain: MPYYYRRRRYNYRRPRWYGRGWIRRPFRRRFRRKRRVRPTYTTIPLKQWQPPYKRTCYIKGQDCLIYYSNLRLGMNSTMYEKSIVPVHWPGGGSFSVSMLTLDALYDIHKLCRNWWTSTNQDLPLVRYKGCKITFYQSTFTDYIVRIHTELPANSNKLTYPNTHPLMMMMSKYKHIIPSRQTRRKKKPYTKIFVKPPPQFENKWYFATDLYKIPLLQIHCTACNLQNPFVKPDKLSNNVTLWSLNTISIQNRNMSVDQGQSWPFKILGTQSFYFYFYTGANLPGDTTQIPVADLLPLTNPRINRPGQSLNEAKITDHITFTEYKNKFTNYWGNPFNKHIQEHLDMILYSLKSPEAIKNEWTTENMKWNQLNNAGTMALTPFNEPIFTQIQYNPDRDTGEDTQLYLLSNATGTGWDPPGIPELILEGFPLWLIYWGFADFQKNLKKVTNIDTNYMLVAKTKFTQKPGTFYLVILNDTFVEGNSPYEKQPLPEDNIKWYPQVQYQLEAQNKLLQTGPFTPNIQGQLSDNISMFYKFYFKWGGSPPKAINVENPAHQIQYPIPRNEHETTSLQSPGEAPESILYSFDYRHGNYTTTALSRISQDWALKDTVSKITEPDRQQLLKQALECLQISEETQEKKEKEVQQLISNLRQQQQLYRERIISLLKDQ
notes: also called Anellovirus ORF1 protein
B1: binds.
